The results in this text go back to the supplement of paper PMC5998384.

For data set [1], the system named is HeLa Kyoto. As to the kind of experiment: solubility in G1/S (NP-40 vs SDS abundance) (log2 ratio); higher = more soluble. The note with it: cell cycle stage: G1/S.
Data set [2] relates to HeLa Kyoto. As to the kind of experiment: melting temperature (median over replicates), in situ; higher = more thermally stable.
The subject of data set [3] is HeLa Kyoto. Briefly: solubility change mitosis vs G1/S (difference of NP-40 vs SDS log2 ratios) (log2 ratio difference); higher = more soluble in mitosis.
In data set [4] the test system is HeLa Kyoto. As to the kind of experiment: thermal stability score vs G1/S (z-score of summed log2 fold changes over temperatures); higher = more thermally stable than in G1/S.
The mark [5] stands for this setting: cell cycle stage: early G1 (4.5 h after nocodazole release).
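Wherever melting temperature (median over replicates), in situ is given: HeLa Kyoto cells synchronized by double thymidine or nocodazole block, proteins quantified by TMT10plex mass spectrometry, three independent biological replicates.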
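Wherever solubility change mitosis vs G1/S (difference of NP-40 vs SDS log2 ratios) is given: synchronized HeLa Kyoto cells (double thymidine block for G1/S, nocodazole release for mitosis), protein amounts in NP-40 versus SDS lysates quantified by mass spectrometry, three biological replicates.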
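Wherever solubility in G1/S (NP-40 vs SDS abundance) is given: HeLa Kyoto cells arrested at G1/S by double thymidine block, proteins quantified by TMT10plex mass spectrometry in mild NP-40 versus SDS extracts, three biological replicates.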
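Wherever thermal stability score vs G1/S (z-score of summed log2 fold changes over temperatures) is given: synchronized HeLa Kyoto cells, proteins quantified by TMT10plex mass spectrometry, three biological replicates, mitosis taken 0.5 h after nocodazole release, G1/S directly after double thymidine block.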

Take “MKPGFSPRGGGFGGRGGFGDRGGRGGRGGFGGGRGRGGGFRGRGRGGGGGGGGGGGGGRGGGGFHSGGNRGRGRGGKRGNQSGKNVMVEPHRHEGVFICRGKEDALVTKNLVPGESVYGEKRVSISEGDDKIEYRAWNPFRSKLAAAILGGVDQIHIKPGAKVLYLGAASGTTVSHVSDIVGPDGLVYAVEFSHRSGRDLINLAKKRTNIIPVIEDARHPHKYRMLIAMVDVIFADVAQPDQTRIVALNAHTFLRNGGHFVISIKANCIDSTASAEAVFASEVKKMQQENMKPQEQLTLEPYERDHAVVVGVYRPPPKVKN [FBL]”: in the data set on HeLa Kyoto [1], the “solubility in G1/S (log2)” value is -1.97. Also, the melting temperature with HeLa Kyoto [2] (cell cycle stage: G1/S) was found to be 52.9 °C; in the data set on HeLa Kyoto [2] (cell cycle stage: mitosis) it was 51.5 °C. For the same sequence, the “solubility change mitosis (log2)” value in the data set on HeLa Kyoto [3] came out at 1.49. The values for the thermal stability score in the data set on HeLa Kyoto [4] (setting [5]) and with HeLa Kyoto [4] (cell cycle stage: mitosis) were -1.06 and -3.39, respectively.
As to “MKQDASRNAAYTVDCEDYVHVVEFNPFENGDSGNLIAYGGNNYVVIGTCTFQEEEADVEGIQYKTLRTFHHGVRVDGIAWSPETRLDSLPPVIKFCTSAADMKIRLFTSDLQDKNEYKVLEGHTDFINGLVFDPKEGQEIASVSDDHTCRIWNLEGVQTAHFVLHSPGMSVCWHPEETFKLMVAEKNGTIRFYDLLAQQAILSLESEQVPLMSAHWCLKNTFKVGAVAGNDWLIWDITRSSYPQNKRPVHMDRACLFRWSTISENLFATTGYPGKMASQFQIHHLGHPQPILMGSVAVGSGLSWHRTLPLCVIGGDHKLLFWVTEV [NUP37]”, the “solubility in G1/S (log2)” value in the data set on HeLa Kyoto [1] is -0.294. Also, the results for the melting temperature in the data set with HeLa Kyoto [2] (cell cycle stage: G1/S) and in the data set with HeLa Kyoto [2] (cell cycle stage: mitosis) were 53.3 °C and 51 °C, respectively. Also, the “solubility change mitosis (log2)” value in the data set on HeLa Kyoto [3] was found to be 0.135. Further, the results for the thermal stability score in the data set with HeLa Kyoto [4] (setting [5]) and in the data set on HeLa Kyoto [4] (cell cycle stage: mitosis) were -3.41 and -4.8, respectively.
For “MKQLPVLEPGDKPRKATWYTLTVPGDSPCARVGHSCSYLPPVGNAKRGKVFIVGGANPNRSFSDVHTMDLGKHQWDLDTCKGLLPRYEHASFIPSCTPDRIWVFGGANQSGNRNCLQVLNPETRTWTTPEVTSPPPSPRTFHTSSAAIGNQLYVFGGGERGAQPVQDTKLHVFDANTLTWSQPETLGNPPSPRHGHVMVAAGTKLFIHGGLAGDRFYDDLHCIDISDMKWQKLNPTGAAPAGCAAHSAVAMGKHVYIFGGMTPAGALDTMYQYHTEEQHWTLLKFDTLLPPGRLDHSMCIIPWPVTCASEKEDSNSLTLNHEAEKEDSADKVMSHSGDSHEESQTATLLCLVFGGMNTEGEIYDDCIVTVVD [RABEPK]”, the “solubility in G1/S (log2)” value in the data set with HeLa Kyoto [1] turned out to be 0.201. The figures for the melting temperature in the data set with HeLa Kyoto [2] (cell cycle stage: G1/S) and in the data set on HeLa Kyoto [2] (cell cycle stage: mitosis) were 56.5 °C and 56 °C, respectively. For the same sequence, the “solubility change mitosis (log2)” value in the data set on HeLa Kyoto [3] was -0.084. The thermal stability score in the data set on HeLa Kyoto [4] (setting [5]) was -1.33; in the data set on HeLa Kyoto [4] (cell cycle stage: mitosis), -1.94.
“MKRQGASSERKRARIPSGKAGAANGFLMEVCVDSVESAVNAERGGADRIELCSGLSEGGTTPSMGVLQVVKQSVQIPVFVMIRPRGGDFLYSDREIEVMKADIRLAKLYGADGLVFGALTEDGHIDKELCMSLMAICRPLPVTFHRAFDMVHDPMAALETLLTLGFERVLTSGCDSSALEGLPLIKRLIEQAKGRIVVMPGGGITDRNLQRILEGSGATEFHCSARSTRDSGMKFRNSSVAMGASLSCSEYSLKVTDVTKVRTLNAIAKNILV [CUTC]”: the “solubility in G1/S (log2)” value in the data set on HeLa Kyoto [1] was -0.00165. For the same sequence, the melting temperature in the data set with HeLa Kyoto [2] (cell cycle stage: G1/S) was 54.4 °C; in the data set with HeLa Kyoto [2] (cell cycle stage: mitosis), 54.1 °C. The “solubility change mitosis (log2)” value in the data set with HeLa Kyoto [3] was -0.0574. For the same sequence, the figures for the thermal stability score with HeLa Kyoto [4] (setting [5]) and in the data set with HeLa Kyoto [4] (cell cycle stage: mitosis) were -0.146 and -0.357, respectively.
Turning to “MKRRTDPECTAPIKKQKKRVAELALSLSSTSDDEPPSSVSHGAKASTTSLSGSDSETEGKQHSSDSFDDAFKADSLVEGTSSRYSMYNSVSQKLMAKMGFREGEGLGKYSQGRKDIVEASSQKGRRGLGLTLRGFDQELNVDWRDEPEPSACEQVSWFPECTTEIPDTQEMSDWMVVGKRKMIIEDETEFCGEELLHSVLQCKSVFDVLDGEEMRRARTRANPYEMIRGVFFLNRAAMKMANMDFVFDRMFTNPRDSYGKPLVKDREAELLYFADVCAGPGGFSEYVLWRKKWHAKGFGMTLKGPNDFKLEDFYSASSELFEPYYGEGGIDGDGDITRPENISAFRNFVLDNTDRKGVHFLMADGGFSVEGQENLQEILSKQLLLCQFLMALSIVRTGGHFICKTFDLFTPFSVGLVYLLYCCFERVCLFKPITSRPANSERYVVCKGLKVGIDDVRDYLFAVNIKLNQLRNTDSDVNLVVPLEVIKGDHEFTDYMIRSNESHCSLQIKALAKIHAFVQDTTLSEPRQAEIRKECLRLWGIPDQARVAPSSSDPKSKFFELIQGTEIDIFSYKPTLLTSKTLEKIRPVFDYRCMVSGSEQKFLIGLGKSQIYTWDGRQSDRWIKLDLKTELPRDTLLSVEIVHELKGEGKAQRKISAIHILDVLVLNGTDVREQHFNQRIQLAEKFVKAVSKPSRPDMNPIRVKEVYRLEEMEKIFVRLEMKIIKGSSGTPKLSYTGRDDRHFVPMGLYIVRTVNEPWTMGFSKSFKKKFFYNKKTKDSTFDLPADSIAPFHICYYGRLFWEWGDGIRVHDSQKPQDQDKLSKEDVLSFIQMHRA [CMTR1]”, the “solubility in G1/S (log2)” value in the data set with HeLa Kyoto [1] was -0.186. The melting temperature with HeLa Kyoto [2] (cell cycle stage: G1/S) was 49.7 °C; with HeLa Kyoto [2] (cell cycle stage: mitosis), 51 °C. Further, in the data set on HeLa Kyoto [3], the “solubility change mitosis (log2)” value was -0.0832. Moreover, the thermal stability score in the data set with HeLa Kyoto [4] (setting [5]) is 0.699; with HeLa Kyoto [4] (cell cycle stage: mitosis), 1.05.
